Measurements: PMC2720809 (Nature, 2009)

Columns and labels:
[1] = molecular target: T1, zebrafish P2X4.1 receptor (zfP2X4) (Danio rerio, UniProt F8W463); assay: whole-cell patch clamp of transfected tsA201 cells; assay type: cell-based
T1 sequence (F8W463 1-389): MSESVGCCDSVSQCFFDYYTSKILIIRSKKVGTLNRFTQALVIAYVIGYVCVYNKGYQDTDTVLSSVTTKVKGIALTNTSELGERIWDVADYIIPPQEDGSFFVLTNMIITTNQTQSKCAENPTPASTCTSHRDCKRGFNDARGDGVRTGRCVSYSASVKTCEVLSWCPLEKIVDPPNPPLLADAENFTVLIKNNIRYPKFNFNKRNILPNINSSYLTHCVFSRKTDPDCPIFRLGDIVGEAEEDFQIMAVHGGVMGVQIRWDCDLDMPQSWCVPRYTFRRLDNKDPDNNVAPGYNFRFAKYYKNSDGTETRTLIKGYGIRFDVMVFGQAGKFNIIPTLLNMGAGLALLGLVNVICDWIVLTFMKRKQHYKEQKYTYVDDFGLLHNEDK

[2] = molecular target: ΔzfP2X4-A (zebrafish P2X4.1 receptor with amino- and carboxyl-terminal deletions) (zebrafish) (UniProt F8W463); assay: crystal structure
[3] = molecular target: ΔzfP2X4-B (ΔzfP2X4-A with C51F/N78K/N187R) (zebrafish) (UniProt F8W463); assay: crystal structure

For `Nc1ncnc2c1ncn2[C@@H]1O[C@H](COP(=O)(O)OP(=O)(O)OP(=O)(O)O)[C@@H](O)[C@H]1O` [ATP], the EC50 [1] was ~800 µM.

“ΔzfP2X4-A (zebrafish P2X4.1 receptor with amino- and carboxyl-terminal deletions) (from UniProt F8W463 1-389)” showed a stoichiometry N [2] of 3.

“ΔzfP2X4-B (ΔzfP2X4-A with C51F/N78K/N187R) (from UniProt F8W463 1-389) (receptor)” gave a stoichiometry N [3] of 3.
